Paper PMC10371147

How the values were obtained:
[1] = biological target: mTmc1 tagged with mRuby3 (mTmc1-mRuby3) (mouse) (UniProt Q8R4P5)
[2] = biological target: mTmc1 tagged with mRuby3 (mTmc1-mRuby3) (mouse) (UniProt Q8R4P5); experiment: FRET or BRET; acceptor photobleaching in living N2A cells co-transfected with mPz1-mClover3 (donor) and mTmc1-mRuby3 (acceptor), Tyrode's solution pH 7.4, region of the surface membrane

Chain of mTmc1 tagged with mRuby3 (mTmc1-mRuby3) (mouse) (Q8R4P5 whole entry): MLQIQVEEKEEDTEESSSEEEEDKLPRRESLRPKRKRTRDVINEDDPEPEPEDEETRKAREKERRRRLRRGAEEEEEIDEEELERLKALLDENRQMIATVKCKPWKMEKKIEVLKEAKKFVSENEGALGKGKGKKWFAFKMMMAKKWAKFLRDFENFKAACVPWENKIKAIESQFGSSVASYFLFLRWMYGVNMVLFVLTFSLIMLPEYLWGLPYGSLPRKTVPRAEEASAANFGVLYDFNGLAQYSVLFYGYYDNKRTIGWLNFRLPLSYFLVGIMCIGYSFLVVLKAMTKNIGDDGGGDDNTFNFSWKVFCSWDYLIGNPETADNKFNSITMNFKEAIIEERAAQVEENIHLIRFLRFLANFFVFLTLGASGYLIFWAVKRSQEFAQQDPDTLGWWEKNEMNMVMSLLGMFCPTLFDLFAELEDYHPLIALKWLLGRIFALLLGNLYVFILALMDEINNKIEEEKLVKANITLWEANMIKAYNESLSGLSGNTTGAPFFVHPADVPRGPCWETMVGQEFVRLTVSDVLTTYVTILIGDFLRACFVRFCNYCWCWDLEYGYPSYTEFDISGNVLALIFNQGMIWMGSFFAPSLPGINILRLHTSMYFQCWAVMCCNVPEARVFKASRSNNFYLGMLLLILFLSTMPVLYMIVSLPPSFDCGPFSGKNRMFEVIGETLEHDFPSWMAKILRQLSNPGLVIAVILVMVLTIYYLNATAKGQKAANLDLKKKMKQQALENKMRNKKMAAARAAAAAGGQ

mouse Pz1 tagged with mClover3 (mPz1-mClover3), E2JF22 1-2547
block by dihydrostreptomycin (DHS) of the mechanically activated current in N2A cells co-transfected with Pz1 and Tmc1, against Pz1 alone [1]: 1000 fold
FRET efficiency (E) [2]: 0.1
